The record followed here is article PMC7585203 (Epigenetics & Chromatin, 2020).

Where no end group is shown, it is not given here.

For orientation: Kd means the concentration at which binding is half-saturated. High values mean lower affinity, low ones higher affinity.

Experiment in all cases: fluorescence polarisation; FAM-labelled peptide with GST-tagged domains or MBP-tagged full-length UHRF1; as described in ref. 4, plotted as change in anisotropy
Common to all, as to conditions: both partners purified
(In general: Polarisation of emitted light reports the rotation of a fluorescent probe.)

The target of experiment [1] is T1, GST-tagged UHRF1 tandem Tudor domain (TTD, a.a. 125–285) ( (printed UniProt entry is …, UniProt Q96T88 125-285)).
T1 construct: also called UHRF1 TTD; source: recombinant GST fusion
T1 sequence (looked up): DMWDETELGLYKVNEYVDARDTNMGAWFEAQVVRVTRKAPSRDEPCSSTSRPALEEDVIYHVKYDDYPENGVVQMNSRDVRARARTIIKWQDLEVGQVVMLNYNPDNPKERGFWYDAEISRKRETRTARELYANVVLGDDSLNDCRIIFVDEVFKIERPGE

Experiment [2] deals with T2, GST-tagged UHRF1 TTD–PHD R295A/R296A ( (printed UniProt entry is …, UniProt Q96T88 125-364, R295A | R296A)).
T2 construct: also called mutation of L2 (R295A/R296A); TTD–PHD mutant; source: recombinant GST fusion
T2 sequence (looked up): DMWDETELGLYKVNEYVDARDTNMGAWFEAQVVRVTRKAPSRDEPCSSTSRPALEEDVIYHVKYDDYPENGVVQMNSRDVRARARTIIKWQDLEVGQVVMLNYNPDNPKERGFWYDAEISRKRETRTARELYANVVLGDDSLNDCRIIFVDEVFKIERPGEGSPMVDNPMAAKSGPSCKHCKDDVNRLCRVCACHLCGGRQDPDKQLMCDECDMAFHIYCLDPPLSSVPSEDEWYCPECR

Experiment [3] deals with T3, GST-tagged UHRF1 TTD–PHD S298E ( (printed UniProt entry is …, UniProt Q96T88 125-364, S298E)).
T3 construct: also called phospho-mimetic mutation in L2; source: recombinant GST fusion
T3 sequence (looked up): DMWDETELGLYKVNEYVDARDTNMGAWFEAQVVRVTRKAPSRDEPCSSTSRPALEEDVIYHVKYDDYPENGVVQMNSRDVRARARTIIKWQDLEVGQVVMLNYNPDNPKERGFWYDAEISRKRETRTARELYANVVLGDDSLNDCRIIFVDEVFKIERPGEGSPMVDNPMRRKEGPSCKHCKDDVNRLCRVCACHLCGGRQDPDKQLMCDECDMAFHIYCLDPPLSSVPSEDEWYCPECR

The target in experiment [4] is T4, UHRF1 full-length (a.a. 1–793), MBP fusion ( (printed UniProt entry is …, UniProt Q96T88 1-793)).
T4 construct: also called recombinant full-length UHRF1; full-length UHRF1; not shown: MBP, N-terminal, kept
T4 sequence (looked up): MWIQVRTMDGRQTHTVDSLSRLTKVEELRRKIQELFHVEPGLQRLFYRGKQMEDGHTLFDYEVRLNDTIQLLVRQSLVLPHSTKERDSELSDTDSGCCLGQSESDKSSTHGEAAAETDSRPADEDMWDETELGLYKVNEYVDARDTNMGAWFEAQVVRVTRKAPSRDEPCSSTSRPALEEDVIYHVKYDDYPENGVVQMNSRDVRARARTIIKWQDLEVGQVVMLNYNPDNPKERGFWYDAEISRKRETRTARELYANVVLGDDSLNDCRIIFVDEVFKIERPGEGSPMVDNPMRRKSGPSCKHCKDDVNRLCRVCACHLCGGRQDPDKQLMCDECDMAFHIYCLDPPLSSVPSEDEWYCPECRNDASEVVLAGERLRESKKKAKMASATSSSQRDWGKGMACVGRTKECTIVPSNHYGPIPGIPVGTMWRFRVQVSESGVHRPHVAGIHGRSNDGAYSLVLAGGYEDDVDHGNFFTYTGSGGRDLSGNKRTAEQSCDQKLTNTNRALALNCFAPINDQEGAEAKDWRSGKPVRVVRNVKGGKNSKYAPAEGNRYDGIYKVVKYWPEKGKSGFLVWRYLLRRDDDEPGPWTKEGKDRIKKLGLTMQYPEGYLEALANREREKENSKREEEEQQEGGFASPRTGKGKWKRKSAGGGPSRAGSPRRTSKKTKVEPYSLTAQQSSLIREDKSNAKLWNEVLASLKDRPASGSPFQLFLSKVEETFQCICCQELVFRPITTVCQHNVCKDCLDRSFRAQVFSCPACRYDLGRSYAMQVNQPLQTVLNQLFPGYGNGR

B1: FAM-LIG1(118–130)K126me2 peptide (peptide)
peptide: {FAM}-IPKRRTARK(Me2)QLPK
modifications: not fully specified (C-terminus); printed as FAM-LIG1(118–130)K126me2 peptide
notes: DNA ligase 1 (LIG1), residues 118-130; also called FAM-LIG1K126me2; LIG1K126me2 peptide; source: bought: GenScript (synthetic peptide)
For B1, the figures for the Kd in experiment [1] and in experiment [4] were 30 to 80 nM and 41 nM, respectively. For the same molecule, the binding result in experiment [2] and in experiment [3] was “binds” each time.
